In the RNAGym collection of RNA variant scans (doi:10.7554/elife.90254) one finds self-cleavage data, which are given here for 167 variants.

B1: OR4K15 (parent)
chain: GUUAACGGUCAUAGGCCAUGGAAACUAGGAGCACCAUUUCGCUGCCAGUGAAGAAAUGAACAAAGAAAAUCUGGGCCAGGCAGGCAUCAAAAGAAAUAGUCUUGCGCUCAACCAGAAAGUCUGUAAUCAUUUUAAGGGUA

The variants in the data set derive from B1. Put plainly: self-cleavage, relative activity (ratio to wild type); higher = more cleavage; in vitro, sequencing; the parent is a self-cleaving ribozyme.
As for G41C A95G, the self-cleavage is 2.25.

Regarding U9C C34U, the self-cleavage was 1.01.

As to A51U A52G, the self-cleavage was 0.93.

For the variant A56G A78U, the self-cleavage was determined as 0.2.

As for A54G A111U, the self-cleavage turned out to be 0.06.

In the case of A118G A125U, the self-cleavage was 1.22.

For the variant A30G A91U, the self-cleavage was 1.67.

G65A U132G: the self-cleavage came out at 0.82.

As to U70G A95G, the self-cleavage is 1.21.

Turning to A47G A54U, the self-cleavage was found to be 0.97.

In the case of U38C A59G, the self-cleavage turned out to be 0.61.

A59G A92G: the self-cleavage is 1.22.

Regarding A24G U39C, the self-cleavage turned out to be 1.35.

On to U19G, for which the self-cleavage stood at 1.18.

Take A22U A89G: the self-cleavage stood at 1.31.

As to A54G A129C, the self-cleavage is 0.76.

For U19C A125U, the self-cleavage worked out at 2.21.

As for G115A A134G, the self-cleavage turned out to be 0.12.

Take U97C U124C: the self-cleavage was 0.17.

Take A64G A66C: the self-cleavage is 1.17.

Consider U43A A51G, for which the self-cleavage was determined as 1.64.

Consider U43C G136A, for which the self-cleavage was 1.75.

In the case of A111G A117U, the self-cleavage is 0.

On to A125G U132C, for which the self-cleavage stood at 0.52.

As for G74A U103C, the self-cleavage came to 0.08.

On to G20U U37C, for which the self-cleavage amounted to 1.37.

Turning to C45U U103C, the self-cleavage stood at 0.54.

Consider A67G U139C, for which the self-cleavage stood at 1.64.

On to U72C G136A, for which the self-cleavage turned out to be 0.7.

On to U26C A114U, for which the self-cleavage is 0.07.

In the case of A24G G83A, the self-cleavage turned out to be 0.98.

Consider A11G U127A, for which the self-cleavage was 1.17.

For the variant C10U A111G, the self-cleavage worked out at 0.07.

Turning to G80A A82C, the self-cleavage was 0.14.

In the case of U9A G80U, the self-cleavage came to 0.2.

Turning to A62G U120C, the self-cleavage came to 1.07.

As to U39C U72A, the self-cleavage worked out at 0.32.

With U37C A64G, the self-cleavage amounted to 1.54.

Take C77A A78G: the self-cleavage stood at 0.53.

Turning to A52C A60G, the self-cleavage was found to be 1.

On to A33U A129G, for which the self-cleavage is 1.03.

For the variant A52G A64G, the self-cleavage was 0.9.

Turning to C25U A67G, the self-cleavage was 1.55.

With U37C A68U, the self-cleavage turned out to be 1.5.

With A47G U97C, the self-cleavage turned out to be 1.08.

For the variant G31U A118G, the self-cleavage is 1.06.

With A33U C81U, the self-cleavage was determined as 0.27.

Turning to U19A U124C, the self-cleavage worked out at 0.9.

With U38C A52G, the self-cleavage turned out to be 1.53.

With G41A U132C, the self-cleavage was determined as 1.79.

Regarding A22G G44A, the self-cleavage was determined as 1.2.

On to U9A U49A, for which the self-cleavage was 1.

For U19C C113U, the self-cleavage came to 0.08.

As to G106A U124C, the self-cleavage amounted to 0.01.

For U49G U139G, the self-cleavage is 1.58.

For the variant G15C A111U, the self-cleavage turned out to be 0.11.

As for A11U G29A, the self-cleavage amounted to 0.94.

On to U108A G123U, for which the self-cleavage came to 0.01.

U103C U131C: the self-cleavage turned out to be 0.49.

Consider A54U A82U, for which the self-cleavage was 0.24.

Take U49C A89C: the self-cleavage amounted to 1.36.

For the variant U70G A118G, the self-cleavage worked out at 0.55.

For U102C A135U, the self-cleavage came out at 2.46.

As for U9C A129U, the self-cleavage was found to be 0.98.

Regarding U12C A55G, the self-cleavage was 1.34.

Turning to A52C A90G, the self-cleavage turned out to be 0.58.

On to A126G A135C, for which the self-cleavage is 0.84.

As to A54G A110C, the self-cleavage is 0.2.

Regarding A24U A98G, the self-cleavage worked out at 0.45.

For the variant U38C A64G, the self-cleavage came out at 1.45.

As to A13U A82G, the self-cleavage was found to be 0.84.

Regarding A13C A116G, the self-cleavage came out at 0.96.

As to U70A U122C, the self-cleavage is 1.14.

In the case of A18C A62C, the self-cleavage was determined as 1.25.

As for U9C A55U, the self-cleavage came to 1.16.

Consider A24G G65U, for which the self-cleavage came out at 1.3.

Turning to U2G A96U, the self-cleavage worked out at 0.84.

A47G A62G: the self-cleavage is 0.63.

Consider A63G A114G, for which the self-cleavage was 0.86.

As to U37C A129G, the self-cleavage amounted to 0.32.

Take U39A C85G: the self-cleavage is 1.07.

For A30U A60G, the self-cleavage amounted to 0.45.

Turning to A54G A66G, the self-cleavage came to 1.51.

In the case of G41A A140G, the self-cleavage came out at 1.89.

For the variant A95U A118G, the self-cleavage amounted to 1.41.

In the case of A78G U139C, the self-cleavage worked out at 0.24.

With A18G A114C, the self-cleavage amounted to 0.05.

Take A69G U133C: the self-cleavage stood at 1.33.

As to A5U A89G, the self-cleavage came out at 1.15.

For the variant A55G A89U, the self-cleavage is 1.55.

Take A96G A116G: the self-cleavage came out at 0.98.

Turning to A66U U122G, the self-cleavage amounted to 2.33.

Regarding U49C G138A, the self-cleavage turned out to be 1.86.

In the case of A63U U87A, the self-cleavage was 1.18.

Turning to C88A U102A, the self-cleavage came out at 0.58.

Consider A95G A116G, for which the self-cleavage worked out at 1.88.

Turning to A98U A114U, the self-cleavage was found to be 0.12.

U108A U120A: the self-cleavage was found to be 0.02.

As for A98U U102C, the self-cleavage turned out to be 2.78.

A66G A95C: the self-cleavage came out at 1.5.

As to U43C U49C, the self-cleavage is 1.22.

For A64C G80A, the self-cleavage was 0.2.

For C109G, the self-cleavage was found to be 0.02.

Consider A59U A78C, for which the self-cleavage worked out at 0.4.

For A22G U127A, the self-cleavage stood at 2.2.

Turning to A59U U108A, the self-cleavage is 0.02.

Turning to U38C A47C, the self-cleavage is 1.99.

Turning to C42A U120A, the self-cleavage is 1.7.

Take A62U A110G: the self-cleavage was determined as 0.14.

As for A47G A52C, the self-cleavage amounted to 0.5.

Regarding A24G U127C, the self-cleavage stood at 0.74.

U19C U102G: the self-cleavage stood at 0.78.

Consider G21A A68G, for which the self-cleavage worked out at 1.55.

As to A36G U37G, the self-cleavage stood at 1.45.

Take A95G: the self-cleavage is 1.85.

Take A64G U133A: the self-cleavage is 1.52.

A23G A135U: the self-cleavage worked out at 1.78.

Regarding U133G, the self-cleavage was found to be 0.38.

Consider G15A A94G, for which the self-cleavage came out at 1.73.

As to A68G A86U, the self-cleavage amounted to 1.51.

In the case of A33U A114U, the self-cleavage amounted to 0.08.

In the case of U70A, the self-cleavage came out at 0.83.

For U72A U127A, the self-cleavage worked out at 0.64.

Turning to A23G A111G, the self-cleavage was 0.05.

In the case of A55G A111G, the self-cleavage worked out at 0.03.

For the variant A68G U120G, the self-cleavage stood at 1.02.

Take A67G G75A: the self-cleavage came to 0.11.

For the variant A129C U133A, the self-cleavage stood at 1.68.

For A66U A111G, the self-cleavage was 0.01.

For the variant G50A A60C, the self-cleavage was 1.9.

A78U A126G: the self-cleavage worked out at 0.17.

On to A96G C113U, for which the self-cleavage was found to be 0.06.

For the variant A13U A63U, the self-cleavage worked out at 1.13.

With A13U A63G, the self-cleavage is 1.3.

In the case of A91G U100C, the self-cleavage was found to be 2.19.

In the case of A27G A111G, the self-cleavage was found to be 0.03.

As to A5U A68G, the self-cleavage worked out at 0.82.

As for A91G A92G, the self-cleavage turned out to be 0.51.

Take A33G U103A: the self-cleavage is 0.46.

Regarding U131C U132C, the self-cleavage worked out at 1.1.

On to G53A A90G, for which the self-cleavage amounted to 0.74.

In the case of U19C A27G, the self-cleavage worked out at 0.89.

U39A A67U: the self-cleavage worked out at 2.37.

For the variant G83A U120C, the self-cleavage stood at 1.74.

As to A30G, the self-cleavage amounted to 1.28.

In the case of A18U A23U, the self-cleavage was 1.88.

With A47G A110U, the self-cleavage came out at 1.15.

Take A78G A140G: the self-cleavage came to 0.32.

Turning to A54U A69G, the self-cleavage was found to be 0.53.

For the variant A52G A118U, the self-cleavage was 0.59.

As to C25U U70C, the self-cleavage was 0.35.

In the case of U108C U122G, the self-cleavage is 0.

Turning to A62G U70A, the self-cleavage amounted to 1.59.

For U39A C109U, the self-cleavage was determined as 0.37.

For A13U A78G, the self-cleavage was 0.2.

For A11C A78C, the self-cleavage is 0.16.

Turning to U43C A63C, the self-cleavage turned out to be 2.53.

As to G65U G138A, the self-cleavage was determined as 1.24.

In the case of G65C A89U, the self-cleavage came to 2.04.

U49C U97A: the self-cleavage turned out to be 2.12.

In the case of U108A A114U, the self-cleavage came out at 0.

As to A66U U72A, the self-cleavage stood at 0.2.

For A24G A140G, the self-cleavage was 1.4.

On to U3C G74U, for which the self-cleavage is 0.15.

For A24U A55G, the self-cleavage was determined as 1.53.

Turning to A23U A117G, the self-cleavage is 1.14.

On to A5C A110G, for which the self-cleavage is 0.33.
